# Experiments:
# Cys39 = Cys39 (UniProt position 40, TWCGPCKMIAP); experiment: chemical modification (iodoacetamide alkylation) with MALDI-TOF mass spectrometry; conditions: not stated for the alkylation step (pre-reduction at 25 °C); 200 mM acetate/acetic acid (pH 3.5-5.5); 100 mM phosphate (pH 6.0-8.0); 100 mM HEPES-NaOH (pH 7.5-8.5); 100 mM glycine (above pH 8.5); carry-over of 40 mM phosphate pH 7.1 from pre-alkylation; Cys36 pre-alkylated (carbamidomethylated), Cys39 free thiol
# Cys36 = Cys36 (UniProt position 37, FTATWCGPCKM); experiment: as above; conditions: not stated for the alkylation step (pre-reduction at 25 °C); 200 mM acetate/acetic acid (pH 3.5-5.5); 100 mM phosphate (pH 6.0-8.0); 100 mM HEPES-NaOH (pH 7.5-8.5); 100 mM glycine (above pH 8.5); carry-over of 50 mM phosphate pH 7.1 and TCEP from pre-reduction; fully reduced (TCEP), both active-site cysteines free thiols
Substance,pKa (Cys39),pKa (Cys36)
"Thioredoxin h1 (CrTRXh1), monoalkylated at Cys36 (CrTRXh1-CAM) (Chlamydomonas reinhardtii)",9.53 ± 0.12,
Thioredoxin h1 (CrTRXh1) (Chlamydomonas reinhardtii),,6.63 ± 0.13

# Reference: paper PMC6356897
